Test results as given in patent US20050176083.

T1: human factor VIIIa, P00451
T1 chain: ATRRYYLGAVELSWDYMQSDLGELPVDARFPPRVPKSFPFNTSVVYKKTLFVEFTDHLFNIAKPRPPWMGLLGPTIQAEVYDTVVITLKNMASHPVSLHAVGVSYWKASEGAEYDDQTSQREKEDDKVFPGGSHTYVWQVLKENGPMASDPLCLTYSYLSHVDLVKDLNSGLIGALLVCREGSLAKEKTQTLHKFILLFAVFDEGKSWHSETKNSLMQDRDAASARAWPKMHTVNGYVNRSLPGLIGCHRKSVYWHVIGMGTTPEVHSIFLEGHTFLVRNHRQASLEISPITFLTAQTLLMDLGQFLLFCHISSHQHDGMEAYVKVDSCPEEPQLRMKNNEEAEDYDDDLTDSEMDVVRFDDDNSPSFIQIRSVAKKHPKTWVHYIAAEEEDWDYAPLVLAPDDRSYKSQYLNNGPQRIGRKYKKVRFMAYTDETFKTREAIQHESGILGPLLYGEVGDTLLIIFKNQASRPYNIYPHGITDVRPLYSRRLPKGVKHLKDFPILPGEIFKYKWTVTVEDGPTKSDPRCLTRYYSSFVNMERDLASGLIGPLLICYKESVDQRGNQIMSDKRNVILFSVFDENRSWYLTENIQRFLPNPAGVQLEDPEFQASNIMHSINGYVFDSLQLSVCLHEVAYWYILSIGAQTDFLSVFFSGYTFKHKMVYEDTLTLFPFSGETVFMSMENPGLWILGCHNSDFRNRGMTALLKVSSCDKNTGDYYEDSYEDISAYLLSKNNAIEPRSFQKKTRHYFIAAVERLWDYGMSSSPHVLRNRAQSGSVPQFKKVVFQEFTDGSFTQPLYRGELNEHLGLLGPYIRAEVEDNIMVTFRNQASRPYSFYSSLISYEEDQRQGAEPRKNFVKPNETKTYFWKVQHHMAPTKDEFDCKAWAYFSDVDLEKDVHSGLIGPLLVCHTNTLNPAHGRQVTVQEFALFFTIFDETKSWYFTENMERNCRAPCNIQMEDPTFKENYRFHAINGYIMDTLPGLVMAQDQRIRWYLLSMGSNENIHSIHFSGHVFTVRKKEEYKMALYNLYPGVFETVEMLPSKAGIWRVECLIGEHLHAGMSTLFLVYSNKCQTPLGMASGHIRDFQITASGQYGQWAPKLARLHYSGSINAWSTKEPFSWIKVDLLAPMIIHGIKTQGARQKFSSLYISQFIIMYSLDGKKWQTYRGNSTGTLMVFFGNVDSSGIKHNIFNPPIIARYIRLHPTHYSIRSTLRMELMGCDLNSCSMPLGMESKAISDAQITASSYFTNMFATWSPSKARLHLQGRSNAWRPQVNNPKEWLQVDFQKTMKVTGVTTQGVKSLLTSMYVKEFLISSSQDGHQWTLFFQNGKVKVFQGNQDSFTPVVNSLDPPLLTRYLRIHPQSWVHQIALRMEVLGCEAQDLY

B1: wild-type bovine activated protein C (recombinant, thrombin-activated) (protein)
chain 1: ANSFLEELRPGNVERECSEEVCEFEEAREIFQNTEDTMAFWSKYSDGDQCEDRPSGSPCDLPCCGRGKCIDGLGGFRCDCAEGWEGRFCLHEVRFSNCSAENGGCAHYCMEEEGRRHCSCAPGYRLEDDHQLCVSKVTFPCGRLGKRMEKKRKTL
chain 2: IVDGQEAGWGESPWQAVLLDSKKKLVCGAVLIHVSWVLTVAHCLDSRKKLIVRLGEYDMRRWESWEVDLDIKEVIIHPNYTKSTSDNDIALLRLAKPATLSQTIVPICLPDSGLSERKLTQVGQETVVTGWGYRDETKRNRTFVLSFIKVPVVPYNACVHAMENKISENMLCAGILGDPRDACEGDSGGPMVTFFRGTWFLVGLVSWGEGCGRLYNYGVYTKVSRYLDWIYGHIKAQEAPLESQVP
B2: wild-type human activated protein C (recombinant, thrombin-activated) (protein)
chain 1: ANSFLEELRHSSLERECIEEICDFEEAKEIFQNVDDTLAFWSKHVDGDQCLVLPLEHPCASLCCGHGTCIDGIGSFSCDCRSGWEGRFCQREVSFLNCSLDNGGCTHYCLEEVGWRRCSCAPGYKLGDDLLQCHPAVKFPCGRPWKRMEKKRSHL
chain 2: LIDGKMTRRGDSPWQVVLLDSKKKLACGAVLIHPSWVLTAAHCMDESKKLLVRLGEYDLRRWEKWELDLDIKEVFVHPNYSKSTTDNDIALLHLAQPATLSQTIVPICLPDSGLAERELNQAGQETLVTGWGYHSSREKEAKRNRTFVLNFIKIPVVPHNECSEVMSNMVSENMLCAGILGDRQDACEGDSGGPMVASFHGTWFLVGLVSWGEGCGLLHNYGVYTKVSRYLDWIHGHIRDKEAPQKSWAP

Experiments:
[1] = target: T1, human factor VIIIa, P00451
[2] = target: bovine factor Va (in bovine plasma), Q28107
[3] = target: human factor Va (normal, from human plasma), P12259
[4] = target: Q506 mutant human factor Va (FVa Leiden), P12259
Chain of Q506 mutant human factor Va (FVa Leiden), P12259 (P12259 other isoform, or with tags, fused parts or gaps mutant): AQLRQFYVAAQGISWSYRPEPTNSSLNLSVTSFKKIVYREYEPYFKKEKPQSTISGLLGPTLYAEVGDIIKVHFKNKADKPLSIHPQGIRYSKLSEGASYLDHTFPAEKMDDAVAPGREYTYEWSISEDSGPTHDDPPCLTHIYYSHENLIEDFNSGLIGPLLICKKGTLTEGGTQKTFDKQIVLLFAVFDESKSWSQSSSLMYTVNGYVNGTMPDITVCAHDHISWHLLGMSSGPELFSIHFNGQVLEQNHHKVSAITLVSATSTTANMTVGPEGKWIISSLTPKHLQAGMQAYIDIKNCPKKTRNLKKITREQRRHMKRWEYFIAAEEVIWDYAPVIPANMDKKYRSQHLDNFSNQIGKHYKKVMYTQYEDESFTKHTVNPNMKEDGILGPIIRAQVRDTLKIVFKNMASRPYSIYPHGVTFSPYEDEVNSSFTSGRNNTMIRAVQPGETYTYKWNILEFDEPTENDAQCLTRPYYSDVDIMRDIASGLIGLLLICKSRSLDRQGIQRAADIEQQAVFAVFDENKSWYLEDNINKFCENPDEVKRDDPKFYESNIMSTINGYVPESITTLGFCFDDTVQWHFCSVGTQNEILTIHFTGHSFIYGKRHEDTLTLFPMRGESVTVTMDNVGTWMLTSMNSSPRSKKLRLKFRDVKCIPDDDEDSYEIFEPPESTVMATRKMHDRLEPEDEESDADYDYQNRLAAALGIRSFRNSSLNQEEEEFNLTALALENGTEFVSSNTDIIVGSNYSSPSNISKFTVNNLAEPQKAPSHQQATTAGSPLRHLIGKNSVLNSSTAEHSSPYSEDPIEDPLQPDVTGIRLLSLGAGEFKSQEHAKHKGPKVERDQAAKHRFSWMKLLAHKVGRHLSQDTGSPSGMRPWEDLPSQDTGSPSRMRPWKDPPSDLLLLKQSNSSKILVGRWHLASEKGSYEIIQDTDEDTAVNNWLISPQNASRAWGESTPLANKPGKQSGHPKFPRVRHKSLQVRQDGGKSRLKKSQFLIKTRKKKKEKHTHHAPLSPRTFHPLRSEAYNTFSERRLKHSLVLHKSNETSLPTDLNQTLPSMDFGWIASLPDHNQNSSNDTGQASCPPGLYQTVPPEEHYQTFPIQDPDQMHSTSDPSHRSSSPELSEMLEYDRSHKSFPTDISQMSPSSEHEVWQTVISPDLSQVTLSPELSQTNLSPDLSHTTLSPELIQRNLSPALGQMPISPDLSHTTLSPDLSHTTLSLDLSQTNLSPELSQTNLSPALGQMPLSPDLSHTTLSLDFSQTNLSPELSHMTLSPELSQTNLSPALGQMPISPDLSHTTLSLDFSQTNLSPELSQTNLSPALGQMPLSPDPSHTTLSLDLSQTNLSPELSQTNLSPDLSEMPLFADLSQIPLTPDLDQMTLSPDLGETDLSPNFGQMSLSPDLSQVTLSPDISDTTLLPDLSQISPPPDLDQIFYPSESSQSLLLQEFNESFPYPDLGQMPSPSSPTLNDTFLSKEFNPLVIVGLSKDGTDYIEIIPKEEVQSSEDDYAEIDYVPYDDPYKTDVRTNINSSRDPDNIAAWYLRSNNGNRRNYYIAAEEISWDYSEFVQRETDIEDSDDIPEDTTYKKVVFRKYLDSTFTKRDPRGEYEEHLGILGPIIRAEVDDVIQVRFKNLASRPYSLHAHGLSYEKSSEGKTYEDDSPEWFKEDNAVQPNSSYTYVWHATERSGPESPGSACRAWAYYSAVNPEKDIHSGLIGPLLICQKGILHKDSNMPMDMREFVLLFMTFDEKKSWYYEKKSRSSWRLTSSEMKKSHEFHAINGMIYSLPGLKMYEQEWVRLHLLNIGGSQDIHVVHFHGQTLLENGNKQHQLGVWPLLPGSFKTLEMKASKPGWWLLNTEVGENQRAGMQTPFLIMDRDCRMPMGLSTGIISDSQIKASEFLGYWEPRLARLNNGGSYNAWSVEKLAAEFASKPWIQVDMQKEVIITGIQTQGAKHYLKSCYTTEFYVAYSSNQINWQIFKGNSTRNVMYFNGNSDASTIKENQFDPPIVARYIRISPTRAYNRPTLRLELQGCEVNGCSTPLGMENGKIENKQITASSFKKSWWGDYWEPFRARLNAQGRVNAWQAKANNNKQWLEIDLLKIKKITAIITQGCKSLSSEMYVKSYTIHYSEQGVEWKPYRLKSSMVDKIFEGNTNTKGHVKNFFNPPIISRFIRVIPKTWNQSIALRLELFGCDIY

Chain of human factor Va (normal, from human plasma), P12259 (P12259 29-2224): as the sequence (P12259 other isoform, or with tags, fused parts or gaps mutant) above, with Q506R counted along it
Chain of bovine factor Va (in bovine plasma), Q28107 (Q28107 29-2211): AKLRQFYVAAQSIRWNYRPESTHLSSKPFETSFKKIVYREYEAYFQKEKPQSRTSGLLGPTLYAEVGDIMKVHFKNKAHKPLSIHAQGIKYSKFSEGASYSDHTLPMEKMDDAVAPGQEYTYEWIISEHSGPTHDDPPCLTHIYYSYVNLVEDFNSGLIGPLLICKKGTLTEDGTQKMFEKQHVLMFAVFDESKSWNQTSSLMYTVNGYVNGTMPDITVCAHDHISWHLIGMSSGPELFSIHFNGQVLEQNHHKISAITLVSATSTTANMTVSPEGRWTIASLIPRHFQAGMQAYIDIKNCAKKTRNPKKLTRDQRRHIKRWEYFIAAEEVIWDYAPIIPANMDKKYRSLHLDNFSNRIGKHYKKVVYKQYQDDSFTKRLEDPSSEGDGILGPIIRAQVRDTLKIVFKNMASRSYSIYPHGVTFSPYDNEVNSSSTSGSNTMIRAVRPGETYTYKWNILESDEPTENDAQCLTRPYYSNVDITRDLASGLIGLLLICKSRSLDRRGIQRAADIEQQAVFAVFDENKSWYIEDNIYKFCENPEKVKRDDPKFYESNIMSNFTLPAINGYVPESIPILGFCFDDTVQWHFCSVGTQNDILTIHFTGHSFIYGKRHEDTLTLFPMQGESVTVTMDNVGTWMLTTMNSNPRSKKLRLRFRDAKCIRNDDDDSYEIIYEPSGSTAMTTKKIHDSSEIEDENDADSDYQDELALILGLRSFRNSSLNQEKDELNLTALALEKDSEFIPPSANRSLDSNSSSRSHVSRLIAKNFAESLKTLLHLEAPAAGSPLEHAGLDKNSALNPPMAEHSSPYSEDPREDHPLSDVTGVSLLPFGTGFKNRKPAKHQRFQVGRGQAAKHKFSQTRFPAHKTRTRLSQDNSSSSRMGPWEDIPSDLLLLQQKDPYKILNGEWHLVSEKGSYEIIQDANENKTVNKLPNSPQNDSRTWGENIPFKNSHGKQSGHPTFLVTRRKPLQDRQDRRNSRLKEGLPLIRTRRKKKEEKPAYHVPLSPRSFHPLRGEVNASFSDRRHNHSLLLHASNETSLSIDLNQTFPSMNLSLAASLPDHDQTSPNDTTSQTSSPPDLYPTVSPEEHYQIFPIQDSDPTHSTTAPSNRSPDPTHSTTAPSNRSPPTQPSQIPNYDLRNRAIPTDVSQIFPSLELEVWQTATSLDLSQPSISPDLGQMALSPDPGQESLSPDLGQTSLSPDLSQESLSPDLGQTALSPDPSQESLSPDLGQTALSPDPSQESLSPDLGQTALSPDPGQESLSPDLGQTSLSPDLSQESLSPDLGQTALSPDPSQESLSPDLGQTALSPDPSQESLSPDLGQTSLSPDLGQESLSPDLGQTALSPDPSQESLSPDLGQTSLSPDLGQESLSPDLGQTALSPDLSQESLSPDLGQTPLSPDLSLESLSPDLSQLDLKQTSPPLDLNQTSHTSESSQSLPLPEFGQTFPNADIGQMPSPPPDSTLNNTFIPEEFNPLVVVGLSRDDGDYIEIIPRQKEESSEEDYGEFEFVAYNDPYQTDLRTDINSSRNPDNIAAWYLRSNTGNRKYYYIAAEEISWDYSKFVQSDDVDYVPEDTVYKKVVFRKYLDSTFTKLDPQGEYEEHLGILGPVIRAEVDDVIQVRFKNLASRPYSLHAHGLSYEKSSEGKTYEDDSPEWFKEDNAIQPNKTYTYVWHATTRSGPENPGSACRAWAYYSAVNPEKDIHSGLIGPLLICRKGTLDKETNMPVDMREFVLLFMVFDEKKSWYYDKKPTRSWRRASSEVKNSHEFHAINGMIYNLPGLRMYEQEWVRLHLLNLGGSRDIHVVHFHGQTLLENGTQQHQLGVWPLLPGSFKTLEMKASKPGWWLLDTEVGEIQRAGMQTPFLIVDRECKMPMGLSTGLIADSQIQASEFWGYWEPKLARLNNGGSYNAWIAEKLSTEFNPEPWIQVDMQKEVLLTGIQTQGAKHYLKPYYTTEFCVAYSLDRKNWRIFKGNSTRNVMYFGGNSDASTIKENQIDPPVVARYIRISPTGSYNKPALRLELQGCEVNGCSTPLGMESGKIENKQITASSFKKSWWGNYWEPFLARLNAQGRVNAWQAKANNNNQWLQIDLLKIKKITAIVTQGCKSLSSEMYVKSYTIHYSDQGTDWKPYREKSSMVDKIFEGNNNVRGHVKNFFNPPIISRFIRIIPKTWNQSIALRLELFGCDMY

Protein	factor VIIIa inactivation assay (FXa formation, S-2222) with human protein S and factor V [1]	factor VIIIa inactivation assay with bovine protein S and bovine factor V [1]	factor VIIIa inactivation assay with human protein S and factor V, low APC concentrations [1]	prothrombin time (PT) assay, clotting time in bovine plasma [2]	prothrombin time (PT) assay, clotting time in human plasma [3]	remaining FVa activity over time (prothrombinase assay); plasma FVa, 0.4 nM APC, phospholipid vesicles [4]	remaining FVa activity over time (prothrombinase assay, S2238); 0.76 nM plasma FVa, 0.39 nM APC, phospholipid vesicles [3]
B1	the activity of factor VIIIa was inactivated by all APC's from section (2)(i) above but high concentrations were needed	able to inhibit factor VIIIa activity in the presence of bovine protein S and bovine factor V; worked more efficiently than wild-type human APC and human APC-SP	At low concentrations, neither bovine wild-type APC nor bovine APC-SP could inactivate factor VIIIa	wild-type bovine APC and its mutant expressed only weak anticoagulant acitivity in bovine plasma	Neither wild-type bovine APC nor bovine APC-SP had any effect in human plasma	–	–
B2	the activity of factor VIIIa was inactivated by all APC's from section (2)(i) above but high concentrations were needed	able to inhibit factor VIIIa activity in the presence of bovine protein S and bovine factor V	–	wild-type human APC and human APC-SP efficiently prolong clotting time in bovine plasma	Both wild-type human APC and human APC-SP increased clotting times essentially in this PT assay	The addition of wt APC resulted in a slow decrease in FVa activity corresponding to cleavage at Arg306	initial rapid loss of FVa activity that is observed during the first 5 minutes of incubation; slow decrease in FVa activity observed between 5 minutes and 25 minutes of incubation
